In US20210063414A1, “METHODS FOR PREVENTING AND/OR TREATING BONE LOSS CONDITIONS BY MODULATING IRISIN” (Dana-Farber Cancer Institute, Inc., priority 2018, published 2021) one finds TMT signal-to-noise ratio data, which are given here for 1 substance.

Holding throughout (test): Crosslinking/co-immunoprecipitation/mass spectrometry (TMT quantitative proteomics) to identify irisin receptors
Common to all, as to format: binding

Assay [1] deals with T1, MLO-Y4 cell surface proteins (Mus musculus, UniProt E9Q557).
T1 construct: endogenous in cells; host or cells: MLO-Y4
The settings on record: co-precipitated protein Dsp (DESP_MOUSE). In short, it runs like this: (§1)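 Relative protein abundance came from 6-plex TMT MS3 quantitation on an Orbitrap Fusion Lumos, after in-gel trypsin digestion of Coomassie-stained SDS-PAGE lanes. Input was a Ni-NTA pulldown (250 mM imidazole elution) of lysates from murine MLO-Y4 cells. These cells were treated on ice with His-tagged irisin or adipsin (10 nM, 20 min) in serum-free medium, then crosslinked with 1.5 mM DTSSP for 30 min.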

Assay [2] has as its target T2, MLO-Y4 cell surface proteins (Mus musculus, UniProt P48997).
T2 construct: endogenous in cells; host or cells: MLO-Y4
T2 sequence (P48997 1-467): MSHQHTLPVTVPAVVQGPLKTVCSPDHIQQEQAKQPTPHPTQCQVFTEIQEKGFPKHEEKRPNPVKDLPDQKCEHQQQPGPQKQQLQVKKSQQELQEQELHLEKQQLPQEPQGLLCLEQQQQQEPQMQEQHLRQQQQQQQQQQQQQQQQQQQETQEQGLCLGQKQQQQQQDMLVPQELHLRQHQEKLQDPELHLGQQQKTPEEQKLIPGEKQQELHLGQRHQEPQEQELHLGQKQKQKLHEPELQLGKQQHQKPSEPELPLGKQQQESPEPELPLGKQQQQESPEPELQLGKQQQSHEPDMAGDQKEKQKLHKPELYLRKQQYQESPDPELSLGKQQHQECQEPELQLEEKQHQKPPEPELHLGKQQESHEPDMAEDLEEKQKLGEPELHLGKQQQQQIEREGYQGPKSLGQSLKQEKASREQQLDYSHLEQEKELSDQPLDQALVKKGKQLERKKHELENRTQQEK
The settings on record: co-precipitated protein Ivl (INVO_MOUSE). An outline of the steps:
as §1

The target of assay [3] is T3, MLO-Y4 cell surface proteins (Mus musculus, UniProt Q6ZQ93).
T3 construct: endogenous in cells; host or cells: MLO-Y4
T3 sequence (Q6ZQ93 whole entry): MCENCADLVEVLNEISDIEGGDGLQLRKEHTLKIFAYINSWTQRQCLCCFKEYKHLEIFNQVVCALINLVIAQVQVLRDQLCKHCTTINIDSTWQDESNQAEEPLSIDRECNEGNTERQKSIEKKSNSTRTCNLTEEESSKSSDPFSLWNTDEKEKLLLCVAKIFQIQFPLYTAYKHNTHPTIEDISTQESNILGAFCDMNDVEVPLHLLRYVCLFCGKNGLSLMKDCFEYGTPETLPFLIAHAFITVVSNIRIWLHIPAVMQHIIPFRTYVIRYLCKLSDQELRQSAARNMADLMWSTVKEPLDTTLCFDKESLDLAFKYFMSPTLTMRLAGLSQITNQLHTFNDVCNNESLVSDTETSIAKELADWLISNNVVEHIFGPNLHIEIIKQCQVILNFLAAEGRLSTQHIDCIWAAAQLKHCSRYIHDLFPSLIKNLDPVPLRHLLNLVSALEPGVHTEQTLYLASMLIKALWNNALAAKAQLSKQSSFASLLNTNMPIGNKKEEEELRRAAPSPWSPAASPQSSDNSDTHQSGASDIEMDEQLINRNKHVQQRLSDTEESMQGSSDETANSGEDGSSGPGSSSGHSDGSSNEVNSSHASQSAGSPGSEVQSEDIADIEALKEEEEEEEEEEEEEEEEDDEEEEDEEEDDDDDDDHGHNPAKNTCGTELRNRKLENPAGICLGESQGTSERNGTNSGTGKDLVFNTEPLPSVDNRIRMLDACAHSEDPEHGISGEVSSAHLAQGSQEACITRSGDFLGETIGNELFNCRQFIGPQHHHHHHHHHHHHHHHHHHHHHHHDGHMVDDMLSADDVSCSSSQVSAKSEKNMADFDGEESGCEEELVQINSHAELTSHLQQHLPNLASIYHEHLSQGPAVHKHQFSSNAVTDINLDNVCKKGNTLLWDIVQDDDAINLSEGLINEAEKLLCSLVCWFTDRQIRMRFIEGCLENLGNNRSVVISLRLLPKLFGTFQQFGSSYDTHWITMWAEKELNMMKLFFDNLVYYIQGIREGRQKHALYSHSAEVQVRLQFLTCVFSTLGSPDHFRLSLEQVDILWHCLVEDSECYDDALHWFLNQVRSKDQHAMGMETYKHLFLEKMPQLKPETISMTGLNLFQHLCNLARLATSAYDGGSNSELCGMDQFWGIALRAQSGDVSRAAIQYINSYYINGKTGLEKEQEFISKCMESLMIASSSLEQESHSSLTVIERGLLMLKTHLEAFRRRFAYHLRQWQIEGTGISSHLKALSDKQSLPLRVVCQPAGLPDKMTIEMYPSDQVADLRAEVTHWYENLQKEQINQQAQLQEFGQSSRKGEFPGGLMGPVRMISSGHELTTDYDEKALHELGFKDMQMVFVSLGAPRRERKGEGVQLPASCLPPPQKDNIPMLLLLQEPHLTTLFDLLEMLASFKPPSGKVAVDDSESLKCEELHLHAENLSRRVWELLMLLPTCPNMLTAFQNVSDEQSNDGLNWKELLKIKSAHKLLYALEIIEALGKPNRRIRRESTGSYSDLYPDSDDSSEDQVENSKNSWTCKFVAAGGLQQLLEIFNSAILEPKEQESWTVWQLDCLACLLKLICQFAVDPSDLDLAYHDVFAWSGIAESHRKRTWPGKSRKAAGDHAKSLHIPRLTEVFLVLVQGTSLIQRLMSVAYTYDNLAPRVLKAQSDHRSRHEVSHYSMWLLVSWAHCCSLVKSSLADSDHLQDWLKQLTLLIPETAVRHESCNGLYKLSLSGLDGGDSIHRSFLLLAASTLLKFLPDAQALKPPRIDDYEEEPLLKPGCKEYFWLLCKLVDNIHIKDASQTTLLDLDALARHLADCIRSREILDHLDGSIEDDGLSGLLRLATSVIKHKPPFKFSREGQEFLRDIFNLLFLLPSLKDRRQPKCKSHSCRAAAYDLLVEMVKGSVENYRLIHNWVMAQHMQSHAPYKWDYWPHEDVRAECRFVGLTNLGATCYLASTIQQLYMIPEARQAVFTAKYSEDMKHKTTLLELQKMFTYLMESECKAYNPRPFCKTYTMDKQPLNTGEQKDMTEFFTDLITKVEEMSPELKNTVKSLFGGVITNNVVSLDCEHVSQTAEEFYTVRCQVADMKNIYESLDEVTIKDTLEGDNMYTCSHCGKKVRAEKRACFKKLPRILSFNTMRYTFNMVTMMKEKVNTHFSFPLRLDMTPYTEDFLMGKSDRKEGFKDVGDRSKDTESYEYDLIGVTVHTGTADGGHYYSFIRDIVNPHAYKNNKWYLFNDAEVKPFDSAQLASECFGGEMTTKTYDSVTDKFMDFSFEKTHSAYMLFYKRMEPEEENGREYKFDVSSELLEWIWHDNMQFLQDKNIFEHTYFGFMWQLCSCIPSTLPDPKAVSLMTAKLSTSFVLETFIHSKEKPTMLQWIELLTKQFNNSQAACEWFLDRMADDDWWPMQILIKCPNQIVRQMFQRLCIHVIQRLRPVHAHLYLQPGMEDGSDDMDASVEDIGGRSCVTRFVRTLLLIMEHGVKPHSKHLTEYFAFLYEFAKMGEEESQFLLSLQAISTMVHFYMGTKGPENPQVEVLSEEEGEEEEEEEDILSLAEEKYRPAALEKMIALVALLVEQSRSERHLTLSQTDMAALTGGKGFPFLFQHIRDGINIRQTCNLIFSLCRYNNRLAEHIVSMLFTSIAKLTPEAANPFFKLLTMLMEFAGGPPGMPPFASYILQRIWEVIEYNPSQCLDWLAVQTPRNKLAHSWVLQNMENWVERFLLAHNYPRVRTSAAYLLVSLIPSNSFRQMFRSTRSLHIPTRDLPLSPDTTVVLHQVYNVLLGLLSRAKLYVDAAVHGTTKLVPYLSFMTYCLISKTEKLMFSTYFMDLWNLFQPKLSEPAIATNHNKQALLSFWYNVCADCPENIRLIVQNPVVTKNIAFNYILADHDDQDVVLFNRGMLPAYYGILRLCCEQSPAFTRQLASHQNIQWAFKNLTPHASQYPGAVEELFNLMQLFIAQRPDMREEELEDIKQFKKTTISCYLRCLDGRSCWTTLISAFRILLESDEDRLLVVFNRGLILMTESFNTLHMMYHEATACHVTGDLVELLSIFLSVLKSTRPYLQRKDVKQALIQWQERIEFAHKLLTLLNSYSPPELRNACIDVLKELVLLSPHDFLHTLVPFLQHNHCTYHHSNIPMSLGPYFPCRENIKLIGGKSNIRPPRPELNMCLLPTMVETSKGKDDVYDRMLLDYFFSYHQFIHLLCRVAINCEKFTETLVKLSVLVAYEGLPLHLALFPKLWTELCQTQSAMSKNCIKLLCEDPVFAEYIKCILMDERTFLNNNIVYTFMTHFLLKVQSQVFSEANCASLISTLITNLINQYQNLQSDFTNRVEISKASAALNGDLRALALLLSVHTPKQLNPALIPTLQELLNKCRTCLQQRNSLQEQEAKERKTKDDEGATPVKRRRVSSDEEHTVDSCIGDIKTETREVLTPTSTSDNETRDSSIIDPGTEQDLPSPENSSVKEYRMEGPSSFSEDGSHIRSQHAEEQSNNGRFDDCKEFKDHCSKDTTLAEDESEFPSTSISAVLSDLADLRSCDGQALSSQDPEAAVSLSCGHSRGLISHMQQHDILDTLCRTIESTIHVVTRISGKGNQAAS
The settings on record: co-precipitated protein Usp34 (UBP34_MOUSE). In short, it runs like this:
as §1

Assay [4] deals with T4, MLO-Y4 cell surface proteins (Mus musculus, UniProt Q9Z2I9).
T4 construct: endogenous in cells; host or cells: MLO-Y4
T4 sequence (Q9Z2I9 54-463): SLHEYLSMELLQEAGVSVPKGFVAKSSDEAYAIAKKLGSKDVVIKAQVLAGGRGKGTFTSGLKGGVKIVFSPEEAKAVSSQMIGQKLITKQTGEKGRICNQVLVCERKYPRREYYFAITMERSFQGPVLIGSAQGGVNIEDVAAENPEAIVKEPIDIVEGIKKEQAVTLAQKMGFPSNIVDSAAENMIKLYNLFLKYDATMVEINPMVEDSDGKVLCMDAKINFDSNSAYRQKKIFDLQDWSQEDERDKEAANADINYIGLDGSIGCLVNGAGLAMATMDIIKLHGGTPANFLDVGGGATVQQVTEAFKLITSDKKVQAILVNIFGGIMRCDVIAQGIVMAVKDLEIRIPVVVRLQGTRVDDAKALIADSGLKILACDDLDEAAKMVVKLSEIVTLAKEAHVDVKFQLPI
The settings on record: co-precipitated protein Sucla2 (SUCB1_MOUSE). In short, it runs like this:
as §1

On to adipsin, for which the TMT signal-to-noise ratio in assay [1] was 79.7679; in assay [2], 222.079; in assay [3], 1044.49; in assay [4], 50.8753.
